Reference: the supplement of paper PMC10899765

Key:
Details in all cases: 20 nM; 72 h
[1] = system: MCF10A; assay: one-nucleolus phenotype percent effect (relative to siNT 0% and siNOL11 100%); higher = more cells with one nucleolus (ribosome biogenesis inhibition)
Method: (§1)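 After 72 h, cells were fixed and stained with Hoechst and anti-fibrillarin, and nucleoli per nucleus were counted with CellProfiler. Values are plate-adjusted percent effect for the one-nucleolus and 5+ nucleoli phenotypes, normalised to siNT (0%) and to the positive controls siNOL11 or siKIF11 (100%), as the mean of biological triplicates. Percent viability is the nuclei count relative to siNT.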

[2] = system: MCF10A; assay: 5+ nucleoli phenotype percent effect (relative to siNT 0% and siKIF11 100%); higher = more cells with five or more nucleoli
Method: as §1

[3] = system: MCF10A; assay: percent viability (nuclei count relative to siNT); higher = more viable cells
Method: as §1

Sequence	one-nucleolus phenotype percent effect [1] [%]	5+ nucleoli phenotype percent effect [2] [%]	percent viability [3] [%]
UCUGUCAUUUCUUUAGGCCAAUA [hsa-miR-215-3p]	2.4	-6.58	39.5
AUGGAGAAGGCUUCUGA [hsa-miR-4531]	56.1	-33.8	32.2
UUGAGGAAAAGAUGGUCUUAUU [hsa-miR-3915]	-3.96	-19	36.5
UGCAAAAGUAAUCACAGUUUUU [hsa-miR-548f-5p]	-27.5	23.9	75.6
AGGUGUGUCUGUAGAGUCC [hsa-miR-3650]	45.8	-24.7	19.8
AUGUGCCUGAGGGAGUAAGACA [hsa-miR-550b-2-5p]	9.16	-13.6	49.7
UCGUUUGCCUUUUUCUGCUU [hsa-miR-1282]	-8.15	5.62	84.2
UGCAUGACCCUUCCCUCCCCAC [hsa-miR-6797-3p]	1.95	-8.08	31.8
UGCUAGUCUGGACUGAUAUGGU [hsa-miR-8086]	-8.07	-8.54	31.7
AUGUAUGUGUGCAUGUGCAUG [hsa-miR-297]	-26.3	34.4	116
AAGUGCCGCCAUCUUUUGAGUGU [hsa-miR-371a-3p]	-8.12	-0.0057	45.8
GGUCUAGGCCCGGUGAGAGACUC [hsa-miR-8078]	-3.5	10	21
UCAUUUUUGUGAUGUUGCAGCU [hsa-miR-153-5p]	-16.7	3.53	55
UGUCUAUACUCUGUCACUUUAC [hsa-miR-4796-5p]	45.9	-19.7	34.7
UUUUGUGUCUCCCAUUCCCCAG [hsa-miR-5010-3p]	-9.03	-18.5	57.3
UAAAGAGCCCUGUGGAGACA [hsa-miR-1276]	24.1	-20.8	41.4
ACUGGCCUGGGACUACCGG [hsa-miR-3176]	-13.2	35.3	54.4
UAGAUCUUUGACUCUGGCAGUCUCCAGG [hsa-miR-7161-3p]	-23.9	28.4	87.7
AUGGUUCCGUCAAGCACCAUGG [hsa-miR-218-1-3p]	11.8	4.75	51
AGCUUCCAUGACUCCUGAUGGA [hsa-miR-2115-5p]	-7.01	-3.91	137

Sequence	one-nucleolus phenotype percent effect [1] [%]	5+ nucleoli phenotype percent effect [2] [%]	percent viability [3] [%]
UCACUCUCACCUUGCUUUGC [hsa-miR-4639-3p]	-11.5	3.2	63
GAACCCAUGAGGUUGAGGCUGCAGU [hsa-miR-1273d]	3.74	-8.88	39.1
GCUACUUCACAACACCAGGGCC [hsa-miR-138-1-3p]	-15.7	30.5	112
GUGAGGAGGGGCUGGCAGGGAC [hsa-miR-6858-5p]	-12.2	7.04	84.1
AACCAUCGACCGUUGAGUGGAC [hsa-miR-181c-3p]	16.6	-21.2	71
GGCUGGUCAGAUGGGAGUG [hsa-miR-6131]	-3.05	1.34	71
UUGCUCACUGUUCUUCCCUAG [hsa-miR-1178-3p]	0.794	-31.4	50.3
AGUUGCCUUUUUGUUCCCAUGC [hsa-miR-4423-5p]	-22.1	-0.303	44.9
UGGUGCGGAGAGGGCCCACAGUG [hsa-miR-675-5p]	29.5	-14	39
UUGAAAGGCUAUUUCUUGGUC [hsa-miR-488-3p]	39.9	-44.7	36.8
UCCCCAACCCCUGCCCGCAG [hsa-miR-6793-3p]	13.9	-15.2	27.6
AAUCAUACACGGUUGACCUAUU [hsa-miR-154-3p]	-0.992	-5.26	67.2
UGGCUUCUCUUGCACACCCAG [hsa-miR-6815-3p]	62.9	-12.3	19.9
CAGUUCAGAAGUGUUCCUGAGU [hsa-miR-5000-5p]	-9.77	-19.1	32.3
UUCAGCAGGAACAGCU [hsa-miR-4291]	-4.14	-7.69	45.7
AACGGGAAUGCAGGCUGUAUCU [hsa-miR-4681]	-21	46	30.6
AAAAGUGCUUACAGUGCAGGUAG [hsa-miR-106a-5p]	-17.6	22.1	48.8
UCUUCUCUGUUUUGGCCAUGUG [hsa-miR-942]	-0.685	12.1	73.4
UUAUGGUUUGCCUGGGACUGAG [hsa-miR-584-5p]	-25.7	35	77.9
UUUGGUCCCCUUCAACCAGCUA [hsa-miR-133b]	16.1	-11.4	52.5

Sequence	one-nucleolus phenotype percent effect [1] [%]	5+ nucleoli phenotype percent effect [2] [%]	percent viability [3] [%]
CUAUAUAUCAAACAUAUUCCU [hsa-miR-190a-3p]	-19.5	35.7	67.4
AACCCGUAGAUCCGAACUUGUG [hsa-miR-100-5p]	9.92	-0.958	45.1
AAUUCUGUAAAGGAAGAAGAGG [hsa-miR-4778-5p]	-8.03	32.3	74.3
ACUCAAAAGAUGGCGGCACUUU [hsa-miR-371b-5p]	-20.5	19.5	96.1
AUGCUACUCGGAAAUCCCACUGA [hsa-miR-5089-3p]	12.4	-30.6	47.3
UUUCUUCUUAGACAUGGCAACG [hsa-miR-4659a-3p]	-9.58	-14.6	51.4
UGUAGUUGUAUUGUAUUGCCAC [hsa-miR-4703-3p]	6.74	-29.5	40.8
GGUCCAGAGGGGAGAUAGGUUC [hsa-miR-198]	-9.26	5.19	51.6
AUAACAUUGUAAAGCGCUUCUUUCG [hsa-miR-3143]	-38.3	49	68.7
CAGGUAGAUAUUUGAUAGGCAU [hsa-miR-3927-3p]	-16.5	29.3	24.8
UAUAUGGACUUUUCUGAUACAAUG [hsa-miR-8076]	-22.4	44.8	49.4
GCAGCAGAGAAUAGGACUACGUC [hsa-miR-922]	-15	9.43	108
AGGAAAUGAGGCUGGCUAGGAGC [hsa-miR-5093]	23.8	0.0169	25.8
CACUCAGCCUUGAGGGCACUUUC [hsa-miR-512-5p]	16.2	-15.2	43.4
CCUCUUCCCCUUGUCUCUCCAG [hsa-miR-1236-3p]	-6.25	14.8	76.4
AUGCACCUGGGCAAGGAUUCUG [hsa-miR-500a-3p]	-2.54	-12.9	34.2
CGUGCCACCCUUUUCCCCAG [hsa-miR-1227-3p]	6.65	-2.5	93.4
GUAGAUUCUCCUUCUAUGAGUA [hsa-miR-376a-5p]	-7.97	11.8	24.5
UCGACCGGACCUCGACCGGCU [hsa-miR-1307-5p]	-17.3	13.2	78.8
